Measurements from article PMC3889140 (Bioorganic & medicinal chemistry letters, 2013).
“Also recorded” adds a separate entry of the source. Positions of bridges follow the written chain, without caps; N, C: chain ends. Non-standard residues stand in square brackets, D forms with d. Residues, ends and D or L forms follow the SMILES beside them.

Legend:
[1] = in vivo; set-up: species or system C57 mice; details: C57, mouse, iv, total radioactivity; for tissue uptake dose at 2 h: percent injected dose
[2] = tested on: B16/F1 melanoma cells; test: Cellular internalization in B16/F1 melanoma cells; assay type: cell-based, murine
[3] = tested on: B16/F1 melanoma-bearing C57 mouse; test: SPECT/CT melanoma imaging; assay type: in vivo; details: flank B16/F1 melanoma, 2 h post-injection, about 7.4 MBq, one mouse
[4] = 0.037 MBq, Kidneys (renal) uptake
[5] = 0.037 MBq, Uptake ratio Tumor/Lung

Structure (SMILES): CC(C)[C@H](NC(=O)[C@@H]1CCCN1C(=O)[C@H](CCCNC(=N)N)NC(=O)[C@H](CS)NC(=O)[C@H](Cc1c[nH]c2ccccc12)NC(=O)[C@H](CCCNC(=N)N)NC(=O)[C@@H](Cc1ccccc1)NC(=O)[C@H](Cc1c[nH]cn1)NC(=O)[C@H](CCC(=O)O)NC(=O)[C@H](CS)NC(=O)[C@H](CS)NC(=O)[C@H](CCCNC(=N)N)NC(=O)[C@@H]1CC(=O)N[C@@H](CCCNC(=N)N)C(=O)N[C@@H](C)C(=O)N[C@@H](CC(=O)O)C(=O)N[C@H](Cc2ccc(O)cc2)C(=O)N1)C(N)=O [^99mTc-RAD-Arg-(Arg^11)CCMSH, metal not drawn] (RAD[dY]DRCCEH[dF]RWCRPV-NH2; lactam N-5; C-terminus assumed)
- tissue uptake at 0.5 h ([1]; 0.037 MBq, Blood uptake): 3.43 ± 0.37 %ID/g
- tissue uptake at 2 h ([1]; 0.037 MBq, Blood uptake): 0.59 ± 0.17 %ID/g
- tissue uptake at 4 h ([1]; 0.037 MBq, Blood uptake): 0.1 ± 0.06 %ID/g
- tissue uptake at 24 h ([1]; 0.037 MBq, Blood uptake): 0.04 ± 0.01 %ID/g
- tissue uptake at 0.5 h ([1]; 0.037 MBq, Bone uptake): 1.97 ± 0.22 %ID/g
- tissue uptake at 2 h ([1]; 0.037 MBq, Bone uptake): 0.64 ± 0.25 %ID/g
- tissue uptake at 4 h ([1]; 0.037 MBq, Bone uptake): 0.34 ± 0.13 %ID/g
- tissue uptake at 24 h ([1]; 0.037 MBq, Bone uptake): 0.14 ± 0.04 %ID/g
- tissue uptake at 0.5 h ([1]; 0.037 MBq, Brain uptake): 0.16 ± 0.04 %ID/g
- tissue uptake at 2 h ([1]; 0.037 MBq, Brain uptake): 0.04 ± 0.02 %ID/g
- tissue uptake at 4 h ([1]; 0.037 MBq, Brain uptake): 0.02 ± 0.02 %ID/g
- tissue uptake at 24 h ([1]; 0.037 MBq, Brain uptake): 0.02 %ID/g
- tissue uptake at 0.5 h ([1]; 0.037 MBq, Heart uptake): 1.71 ± 0.58 %ID/g
- tissue uptake at 2 h ([1]; 0.037 MBq, Heart uptake): 0.5 ± 0.14 %ID/g
- tissue uptake at 4 h ([1]; 0.037 MBq, Heart uptake): 0.21 ± 0.03 %ID/g
- tissue uptake at 24 h ([1]; 0.037 MBq, Heart uptake): 0.1 ± 0.02 %ID/g
- tissue uptake at 0.5 h [1, 4]: 41.2 ± 4.48 %ID/g
- tissue uptake at 2 h [1, 4]: 35.6 ± 9.61 %ID/g
- tissue uptake at 4 h [1, 4]: 26.5 ± 0.62 %ID/g
- tissue uptake at 24 h [1, 4]: 12 ± 2.29 %ID/g
- tissue uptake at 0.5 h ([1]; 0.037 MBq, Liver uptake): 3.07 ± 0.08 %ID/g
- tissue uptake at 2 h ([1]; 0.037 MBq, Liver uptake): 1.88 ± 0.35 %ID/g
- tissue uptake at 4 h ([1]; 0.037 MBq, Liver uptake): 1.47 ± 0.11 %ID/g
- tissue uptake at 24 h ([1]; 0.037 MBq, Liver uptake): 1.18 ± 0.28 %ID/g
- tissue uptake at 0.5 h ([1]; 0.037 MBq, Lung uptake): 5.42 ± 0.7 %ID/g
- tissue uptake at 2 h ([1]; 0.037 MBq, Lung uptake): 1.15 ± 0.22 %ID/g
- tissue uptake at 4 h ([1]; 0.037 MBq, Lung uptake): 0.4 ± 0.16 %ID/g
- tissue uptake at 24 h ([1]; 0.037 MBq, Lung uptake): 0.16 ± 0.03 %ID/g
- tissue uptake at 0.5 h ([1]; 0.037 MBq, Muscle uptake): 0.8 ± 0.46 %ID/g
- tissue uptake at 2 h ([1]; 0.037 MBq, Muscle uptake): 0.2 ± 0.15 %ID/g
- tissue uptake at 4 h ([1]; 0.037 MBq, Muscle uptake): 0.15 ± 0.1 %ID/g
- tissue uptake at 24 h ([1]; 0.037 MBq, Muscle uptake): 0.03 ± 0.02 %ID/g
- tissue uptake at 0.5 h ([1]; 0.037 MBq, Pancreas uptake): 1.06 ± 0.33 %ID/g
- tissue uptake at 2 h ([1]; 0.037 MBq, Pancreas uptake): 0.2 ± 0.11 %ID/g
- tissue uptake at 4 h ([1]; 0.037 MBq, Pancreas uptake): 0.1 ± 0.05 %ID/g
- tissue uptake at 24 h ([1]; 0.037 MBq, Pancreas uptake): 0.1 ± 0.05 %ID/g
- tissue uptake at 0.5 h ([1]; 0.037 MBq, Skin uptake): 5.43 ± 0.41 %ID/g
- tissue uptake at 2 h ([1]; 0.037 MBq, Skin uptake): 1.1 ± 0.39 %ID/g
- tissue uptake at 4 h ([1]; 0.037 MBq, Skin uptake): 0.53 ± 0.09 %ID/g
- tissue uptake at 24 h ([1]; 0.037 MBq, Skin uptake): 0.24 ± 0.1 %ID/g
- tissue uptake at 0.5 h ([1]; 0.037 MBq, Spleen uptake): 2.12 ± 0.57 %ID/g
- tissue uptake at 2 h ([1]; 0.037 MBq, Spleen uptake): 0.61 ± 0.31 %ID/g
- tissue uptake at 4 h ([1]; 0.037 MBq, Spleen uptake): 0.25 ± 0.12 %ID/g
- tissue uptake at 24 h ([1]; 0.037 MBq, Spleen uptake): 0.41 ± 0.14 %ID/g
- tissue uptake at 0.5 h ([1]; 0.037 MBq, Stomach uptake): 3.13 ± 0.62 %ID/g
- tissue uptake at 2 h ([1]; 0.037 MBq, Stomach uptake): 1.63 ± 0.43 %ID/g
- tissue uptake at 4 h ([1]; 0.037 MBq, Stomach uptake): 1.41 ± 0.74 %ID/g
- tissue uptake at 24 h ([1]; 0.037 MBq, Stomach uptake): 0.28 ± 0.09 %ID/g
- tissue uptake at 0.5 h ([1]; 0.037 MBq, Tumor uptake): 8.46 ± 3.7 %ID/g
- tissue uptake at 2 h ([1]; 0.037 MBq, Tumor uptake): 18 ± 4.96 %ID/g
- tissue uptake at 4 h ([1]; 0.037 MBq, Tumor uptake): 14.1 ± 2.9 %ID/g
- tissue uptake at 24 h ([1]; 0.037 MBq, Tumor uptake): 10.2 ± 2.66 %ID/g
- tissue to tissue ratio at 0.5 h [1, 5]: 1.56
- tissue to tissue ratio at 2 h [1, 5]: 15.6
- tissue to tissue ratio at 4 h [1, 5]: 35.2
- tissue to tissue ratio at 24 h [1, 5]: 63.5
- tissue uptake dose at 2 h ([1]; Bladder): 77.8 ± 2.34 %ID
- tissue uptake dose at 2 h ([1]; Intestines): 2.5 ± 0.16 %ID
- tissue to tissue ratio at 2 h ([1]; Uptake ratio Tumor/Blood): 2.41
- tissue to tissue ratio at 2 h ([1]; Uptake ratio Tumor/Kidneys): 0.09
- tissue to tissue ratio at 2 h ([1]; Uptake ratio Tumor/Liver): 1.12
- tissue to tissue ratio at 2 h ([1]; Uptake ratio Tumor/Lung): 1.73
- tissue to tissue ratio at 2 h ([1]; Uptake ratio Tumor/Muscle): 10.4
- activity internalized ([2]; 20 min post incubation): Approximately 77.81 ± 4.46%
- activity internalized ([2]; after 2 h incubation): 81.26 ± 4.81%
- melanoma imaging by SPECT/CT [3]: visualized clearly; also recorded: clearly imaged
